The target in assay [1] is T1, ICD3 of MDA-MB468 cells (frame-shift mutation at amino acid 2034, premature stop) (human).
T1 construct: also called smaller ICD3; faster migrating ICD3
T1 chain: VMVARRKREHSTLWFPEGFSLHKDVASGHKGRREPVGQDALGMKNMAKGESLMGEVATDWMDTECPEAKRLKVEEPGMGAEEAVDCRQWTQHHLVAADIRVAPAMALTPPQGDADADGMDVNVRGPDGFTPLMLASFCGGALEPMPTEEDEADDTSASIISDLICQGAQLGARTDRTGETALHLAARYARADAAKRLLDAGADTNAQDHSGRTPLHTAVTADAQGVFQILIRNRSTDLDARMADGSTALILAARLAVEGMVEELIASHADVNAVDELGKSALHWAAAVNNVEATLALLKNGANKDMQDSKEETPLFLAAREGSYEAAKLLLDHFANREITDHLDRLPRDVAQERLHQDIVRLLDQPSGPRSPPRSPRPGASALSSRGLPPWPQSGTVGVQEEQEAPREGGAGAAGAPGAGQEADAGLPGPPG
Briefly: Western blot of MDA-MB468 cell lysates. On the technique in general: In western blotting, separated proteins are transferred to a membrane and probed.

Assay [2] addresses T2, Notch1 intracellular domain (ICD1) (UniProt P46531 1754-2555).
T2 construct: domain: Notch1 intracellular domain (ICD1)
Briefly: Western blot of lysates of T-cell acute lymphoblastic leukemia cell lines.

The target of assay [3] is T3, Gamma secretase cleaved form of the Notch3 intracellular domain (ICD3) (human, UniProt Q9UM47 1662-2321).
T3 construct: also called Notch3 ICD
T3 sequence: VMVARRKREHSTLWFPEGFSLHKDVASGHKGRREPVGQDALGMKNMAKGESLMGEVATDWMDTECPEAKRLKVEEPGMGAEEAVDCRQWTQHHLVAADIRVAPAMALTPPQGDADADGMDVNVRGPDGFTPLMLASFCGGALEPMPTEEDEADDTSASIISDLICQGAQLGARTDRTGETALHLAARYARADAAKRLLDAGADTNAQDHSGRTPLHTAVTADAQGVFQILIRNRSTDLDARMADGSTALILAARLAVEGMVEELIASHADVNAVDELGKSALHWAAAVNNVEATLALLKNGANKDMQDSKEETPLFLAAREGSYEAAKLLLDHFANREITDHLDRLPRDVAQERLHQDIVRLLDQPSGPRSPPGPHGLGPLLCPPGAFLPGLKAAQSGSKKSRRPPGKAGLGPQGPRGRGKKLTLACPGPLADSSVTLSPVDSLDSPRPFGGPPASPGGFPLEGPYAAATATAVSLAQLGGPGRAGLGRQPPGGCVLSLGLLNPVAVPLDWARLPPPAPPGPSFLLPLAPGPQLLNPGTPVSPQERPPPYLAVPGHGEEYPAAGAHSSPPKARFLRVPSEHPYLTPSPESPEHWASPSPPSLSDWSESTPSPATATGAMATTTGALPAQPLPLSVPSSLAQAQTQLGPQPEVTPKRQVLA
The assay is described as follows: Western blot of TALL-1 cell lysates with hybridoma sub-clone supernatant.

T2 sequence (P46531 1754-2555 limits assumed): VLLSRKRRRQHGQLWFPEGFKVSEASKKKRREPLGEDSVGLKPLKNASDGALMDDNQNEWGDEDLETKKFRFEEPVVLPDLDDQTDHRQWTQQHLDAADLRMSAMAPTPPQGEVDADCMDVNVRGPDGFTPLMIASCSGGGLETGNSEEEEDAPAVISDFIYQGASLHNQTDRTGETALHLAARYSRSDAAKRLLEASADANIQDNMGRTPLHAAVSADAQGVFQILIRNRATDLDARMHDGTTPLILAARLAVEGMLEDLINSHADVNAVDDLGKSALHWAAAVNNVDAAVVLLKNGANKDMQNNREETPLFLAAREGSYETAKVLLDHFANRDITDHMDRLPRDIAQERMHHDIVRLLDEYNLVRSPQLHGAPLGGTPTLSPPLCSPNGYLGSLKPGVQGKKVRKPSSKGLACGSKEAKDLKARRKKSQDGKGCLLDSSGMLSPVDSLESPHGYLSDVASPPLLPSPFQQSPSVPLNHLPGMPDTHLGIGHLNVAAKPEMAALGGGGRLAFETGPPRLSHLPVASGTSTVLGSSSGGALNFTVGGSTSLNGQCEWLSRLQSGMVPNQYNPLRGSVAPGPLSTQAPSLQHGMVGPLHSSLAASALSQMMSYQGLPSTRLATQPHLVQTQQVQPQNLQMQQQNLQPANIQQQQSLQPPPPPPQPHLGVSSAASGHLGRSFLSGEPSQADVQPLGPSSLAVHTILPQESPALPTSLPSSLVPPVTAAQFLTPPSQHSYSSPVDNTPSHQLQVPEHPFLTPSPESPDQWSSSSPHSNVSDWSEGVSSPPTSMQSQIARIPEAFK

B1: ICD3 Ab (antibody, V domains shown)
VH: QSLEESGGDLVKPGASLTLTCTASGFSFTKNAYMCWDRQAPGKRPEWIACIETGDGTTYYASWAKGRFTVSKTSSTTVTLQMTSLTAADTATYFCARELYDDYGDYFNLWGPGTLVTVSS
VL: ALVMTQTPSSVSAAVGGTVTINCQTSENFYSNDILSWYQQKPGQPPKLLIYEASTLASGVPSRFKGSGSGTQFTLTISDVQCDDAATYYCQGSVLDSGWYDISFGGGTEVVVKG
notes: also called ICD3 antibody
With B1, the binding result in assay [1] is “binds”; in assay [2], “no binding (tested: 1:5000 dilution)”; in assay [3] it was “binds”.

The record behind these values is patent US20180009889A1 (Novartis, published 2018).
